# Results: patent US20030028002A1, “Cyclin D binding factor, and uses thereof” (published 2003)
# T1: DMP1 M11 (K319E) K319E (Mus musculus) (UniProt Q8CE22)
# T1 sequence: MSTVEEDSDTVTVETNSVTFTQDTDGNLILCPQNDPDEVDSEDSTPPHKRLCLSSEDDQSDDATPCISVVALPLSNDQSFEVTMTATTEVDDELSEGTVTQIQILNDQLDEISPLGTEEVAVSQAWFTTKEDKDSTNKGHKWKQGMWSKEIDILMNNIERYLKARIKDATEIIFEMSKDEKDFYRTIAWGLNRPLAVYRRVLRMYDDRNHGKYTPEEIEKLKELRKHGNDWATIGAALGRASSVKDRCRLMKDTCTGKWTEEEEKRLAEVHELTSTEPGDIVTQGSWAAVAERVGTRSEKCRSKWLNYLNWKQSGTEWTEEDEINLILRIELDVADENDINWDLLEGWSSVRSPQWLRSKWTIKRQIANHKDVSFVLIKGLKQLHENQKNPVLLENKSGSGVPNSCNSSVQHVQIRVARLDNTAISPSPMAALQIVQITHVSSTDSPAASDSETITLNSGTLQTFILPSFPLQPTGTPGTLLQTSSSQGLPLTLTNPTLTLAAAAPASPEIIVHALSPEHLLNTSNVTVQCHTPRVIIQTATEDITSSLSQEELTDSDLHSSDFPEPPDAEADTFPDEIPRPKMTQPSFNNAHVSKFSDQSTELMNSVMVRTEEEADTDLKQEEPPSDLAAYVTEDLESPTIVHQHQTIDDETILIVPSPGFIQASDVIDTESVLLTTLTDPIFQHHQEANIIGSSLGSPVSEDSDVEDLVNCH
# T2: DMP1 expressed in 293T cells (Mus musculus) (UniProt Q8CE22)
# T2 sequence: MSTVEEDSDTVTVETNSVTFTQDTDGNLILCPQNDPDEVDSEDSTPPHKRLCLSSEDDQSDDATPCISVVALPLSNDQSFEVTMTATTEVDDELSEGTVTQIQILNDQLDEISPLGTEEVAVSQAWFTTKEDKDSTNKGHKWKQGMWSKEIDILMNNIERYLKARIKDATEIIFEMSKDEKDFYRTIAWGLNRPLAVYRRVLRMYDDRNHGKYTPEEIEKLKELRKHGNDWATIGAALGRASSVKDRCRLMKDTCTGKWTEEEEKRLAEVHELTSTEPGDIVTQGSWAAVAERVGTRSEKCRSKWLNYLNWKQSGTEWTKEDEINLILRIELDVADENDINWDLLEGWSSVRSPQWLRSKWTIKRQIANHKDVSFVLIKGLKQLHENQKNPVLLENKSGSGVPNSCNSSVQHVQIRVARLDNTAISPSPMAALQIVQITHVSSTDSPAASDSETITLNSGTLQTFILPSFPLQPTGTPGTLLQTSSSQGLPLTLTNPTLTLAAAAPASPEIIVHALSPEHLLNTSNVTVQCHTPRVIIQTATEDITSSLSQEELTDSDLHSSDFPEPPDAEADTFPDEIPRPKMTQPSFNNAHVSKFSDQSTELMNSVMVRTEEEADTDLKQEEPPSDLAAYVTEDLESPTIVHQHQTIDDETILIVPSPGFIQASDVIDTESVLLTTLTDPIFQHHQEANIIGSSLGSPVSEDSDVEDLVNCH
# T3: DMP1 expressed in NIH-3T3 cells (Mus musculus) (UniProt Q8CE22)
# T3 sequence: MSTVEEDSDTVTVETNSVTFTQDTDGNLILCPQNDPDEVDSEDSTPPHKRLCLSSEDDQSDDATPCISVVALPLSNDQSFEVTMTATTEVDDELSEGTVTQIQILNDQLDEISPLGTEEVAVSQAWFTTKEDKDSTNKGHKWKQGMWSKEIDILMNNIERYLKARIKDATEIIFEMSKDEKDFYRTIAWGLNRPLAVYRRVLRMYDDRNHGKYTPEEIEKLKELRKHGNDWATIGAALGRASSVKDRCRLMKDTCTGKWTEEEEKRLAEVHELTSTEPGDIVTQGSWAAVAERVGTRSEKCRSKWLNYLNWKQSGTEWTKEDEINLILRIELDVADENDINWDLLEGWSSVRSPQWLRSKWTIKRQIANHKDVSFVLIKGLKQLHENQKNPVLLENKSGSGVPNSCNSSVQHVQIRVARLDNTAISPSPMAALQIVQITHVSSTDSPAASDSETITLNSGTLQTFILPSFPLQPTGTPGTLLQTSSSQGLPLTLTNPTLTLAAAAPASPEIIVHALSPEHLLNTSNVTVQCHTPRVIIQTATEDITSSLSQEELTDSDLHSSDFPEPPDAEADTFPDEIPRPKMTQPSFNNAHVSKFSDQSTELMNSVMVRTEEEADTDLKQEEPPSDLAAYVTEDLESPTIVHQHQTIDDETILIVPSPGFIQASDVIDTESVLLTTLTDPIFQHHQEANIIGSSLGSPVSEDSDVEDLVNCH
# T4: DMP1 M11 (K319E) expressed in NIH-3T3 cells K319E (Mus musculus) (UniProt Q8CE22)
# T4 sequence: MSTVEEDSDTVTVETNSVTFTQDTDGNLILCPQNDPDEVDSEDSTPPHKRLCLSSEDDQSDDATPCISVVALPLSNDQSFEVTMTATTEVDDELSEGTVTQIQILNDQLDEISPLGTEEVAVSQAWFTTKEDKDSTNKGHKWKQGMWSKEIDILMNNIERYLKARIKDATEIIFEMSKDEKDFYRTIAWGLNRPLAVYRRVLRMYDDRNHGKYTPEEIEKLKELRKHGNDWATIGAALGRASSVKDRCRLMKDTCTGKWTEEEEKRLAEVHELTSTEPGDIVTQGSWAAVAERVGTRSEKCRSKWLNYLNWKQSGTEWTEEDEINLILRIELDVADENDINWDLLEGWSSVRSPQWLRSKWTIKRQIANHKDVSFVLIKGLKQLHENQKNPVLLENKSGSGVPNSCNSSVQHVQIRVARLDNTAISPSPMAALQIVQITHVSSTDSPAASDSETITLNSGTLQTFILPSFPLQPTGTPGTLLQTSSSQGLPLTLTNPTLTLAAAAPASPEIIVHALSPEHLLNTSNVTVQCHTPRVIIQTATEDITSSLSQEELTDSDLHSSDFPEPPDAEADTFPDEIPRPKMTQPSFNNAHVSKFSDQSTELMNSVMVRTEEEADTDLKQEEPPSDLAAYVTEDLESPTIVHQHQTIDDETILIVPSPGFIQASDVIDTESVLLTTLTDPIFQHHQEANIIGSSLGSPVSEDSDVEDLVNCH
# T5: cyclin D3 (mouse, UniProt P30282 1-292)
# T5 construct: 35S-labelled in vitro translation product in the pull-down; baculovirus product in Sf9 cells
# T5 sequence (looked up): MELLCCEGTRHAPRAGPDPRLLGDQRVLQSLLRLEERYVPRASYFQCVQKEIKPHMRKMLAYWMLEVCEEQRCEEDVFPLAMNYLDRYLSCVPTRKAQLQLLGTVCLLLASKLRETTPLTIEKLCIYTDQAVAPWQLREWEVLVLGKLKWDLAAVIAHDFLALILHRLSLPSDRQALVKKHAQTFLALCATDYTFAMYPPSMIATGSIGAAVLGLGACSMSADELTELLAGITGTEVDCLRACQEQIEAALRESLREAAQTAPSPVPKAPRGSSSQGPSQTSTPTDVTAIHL
# Assays:
# [1] = target: T1, DMP1 M11 (K319E) K319E (Mus musculus); experiment: EMSA; details: very faint band
# [2] = target: T2, DMP1 expressed in 293T cells (Mus musculus); experiment: cell_activity; details: 8x BS2 luciferase reporter
# [3] = target: T3, DMP1 expressed in NIH-3T3 cells (Mus musculus); experiment: cell_activity; details: BS2 luciferase reporter
# [4] = target: T4, DMP1 M11 (K319E) expressed in NIH-3T3 cells K319E (Mus musculus); experiment: cell_activity; details: BS2 luciferase reporter
# [5] = target: T6, cyclin D1 (mouse, UniProt P25322 1-295); experiment: GST pull-down of 35S-labelled in vitro translated cyclin
# T6 construct: 35S-labelled in vitro translation product in the pull-down; baculovirus product in Sf9 cells
# T6 sequence (P25322 whole entry): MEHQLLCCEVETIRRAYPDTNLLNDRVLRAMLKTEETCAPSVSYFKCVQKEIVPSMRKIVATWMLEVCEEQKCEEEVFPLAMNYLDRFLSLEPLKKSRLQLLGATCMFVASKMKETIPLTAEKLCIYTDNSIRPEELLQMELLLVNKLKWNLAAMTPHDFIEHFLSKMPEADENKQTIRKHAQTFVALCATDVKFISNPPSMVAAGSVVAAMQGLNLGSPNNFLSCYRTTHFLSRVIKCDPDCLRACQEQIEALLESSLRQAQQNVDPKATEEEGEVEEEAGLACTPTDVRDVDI
# Procedure: (§1) Because DMP1 interacted with cyclin D2 in yeast, the ability of a glutathione S-transferase (GST)-DMP1 fusion protein to bind D-type cyclins in vitro is examined. GST is fused to residues 176-761 of DMP1 (in lieu of GAL4 in the original cDNA clone), and the bacterially synthesized recombinant protein is incubated with [³⁵S]methionine-labeled D-type cyclins prepared by transcription and translation in vitro. As a positive control, GST-RB which can specifically bind D-type cyclins in this assay is used (15). Bound cyclins recovered on washed glutathione-Sepharose beads are analyzed by electrophoresis on denaturing gels. […] GST-DMP1 is less efficient than GST-RB in binding cyclins D2 and D3 (˜4-fold less binding), and under these conditions, an interaction with D1 is not detected (lanes 3, 7, 11). No labeled proteins bind to GST alone (lanes 4, 8, 12), and neither cyclin A nor cyclin E bind to GST-RB or to GST-DMP1. A cyclin D2 mutant disrupted in an amino-terminal Leu-X-Cys-X-Glu pentapeptide that is required for high efficiency GST-RB binding is not detectably compromised in its interaction with GST-DMP1 (negative data not shown); in agreement, DMP1 bears no homology to RB or to RB-related family members (p107 and p130).
# [6] = target: T5, cyclin D3; experiment: GST pull-down of 35S-labelled in vitro translated cyclin on glutathione-Sepharose, gel autoradiography
# Procedure: as §1
# [7] = target: T7, cyclin D2 (mouse, UniProt P30280 1-289); experiment: as above
# T7 construct: 35S-labelled in vitro translation product in the pull-down; baculovirus product in Sf9 cells
# T7 sequence (P30280 whole entry): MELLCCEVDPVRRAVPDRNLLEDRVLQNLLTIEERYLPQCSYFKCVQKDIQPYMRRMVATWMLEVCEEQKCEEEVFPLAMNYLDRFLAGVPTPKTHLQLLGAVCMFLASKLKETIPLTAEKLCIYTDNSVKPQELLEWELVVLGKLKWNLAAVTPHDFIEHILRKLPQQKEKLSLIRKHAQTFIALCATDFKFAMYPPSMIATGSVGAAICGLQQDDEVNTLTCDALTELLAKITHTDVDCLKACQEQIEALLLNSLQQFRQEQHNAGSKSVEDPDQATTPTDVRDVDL
# Procedure: as §1
binding result [5],fold less binding than GST-RB [6],fold less binding than GST-RB [7],Molecule,binding signal (% of wild type) [1],activity (fold activation) [2],activity (fold activation) [3],activity (fold activation) [4]
,,,AATTGACCCGTATGTAGGTACGC (double strand) [BS2],2,20,8.4,1.1
no binding,~4 fold less binding than GST-RB,~4 fold less binding than GST-RB,"GST-DMP1 fusion protein (GST fused to residues 176-761 of DMP1) (other, Made in bacteria, held on glutathione-Sepharose beads; not shown: glutathione S-transferase encoded by pGEX-3X (Pharmacia)) GIKDATEIIFEMSKDERKDFYRTIAWGLNRPLFAVYRRVLRMYDDRNHVGKYTPEEIEKLKELRIKHGNDWATIGAALGRSASSVKDRCRLMKDTCNTGKWTEEEEKRLAEVVHELTSTEPGDIVTQGVSWAAVAERVGTRSEKQCRSKWLNYLNWKQSGGTEWTKEDEINLILRIAELDVADENDINWDLLAEGWSSVRSPQWLRSKWWTIKRQIANHKDVSFPVLIKGLKQLHENQKNNPVLLENKSGSGVPNSNCNSSVQHVQIRVARLEDNTAISPSPMAALQIPVQITHVSSTDSPAASADSETITLNSGTLQTFEILPSFPLQPTGTPGTYLLQTSSSQGLPLTLTTNPTLTLAAAAPASPEQIIVHALSPEHLLNTSDNVTVQCHTPRVIIQTVATEDITSSLSQEELTVDSDLHSSDFPEPPDALEADTFPDEIPRPKMTIQPSFNNAHVSKFSDQNSTELMNSVMVRTEEEIADTDLKQEEPPSDLASAYVTEDLESPTIVHQVHQTIDDETILIVPSPHGFIQASDVIDTESVLPLTTLTDPIFQHHQEASNIIGSSLGSPVSEDSKDVEDLVNCH",,,,
